According to patent publication US20140057807A1 (UNIVERSITY OF CHICAGO, published 2014):
Positions count from the first letter of the chain named.

T1: human Abl SH2 domain (human, UniProt P00519 112-232, limits assumed)
T1 construct: domain: SH2 domain; poly-histidine tagged in selection; tag cleaved for SPR and crystals; also called Ab1SH2; SH2 domain of Abl kinase
T1 sequence (looked up): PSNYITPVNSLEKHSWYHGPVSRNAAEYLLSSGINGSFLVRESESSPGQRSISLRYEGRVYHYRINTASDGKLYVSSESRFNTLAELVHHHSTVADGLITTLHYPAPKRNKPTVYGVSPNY

B1: SEQ ID NO 81 (designed binder)
chain: VSSVPTKLEVVAATPTSLLISWDAPAVTVDLYLITYGETGGNSPVQEFKVPGSKSTATISGLSPGVDYTITVYAGSDYYYYYQGAYWSPISINYRT
B2: SEQ ID NO 85 (designed binder)
chain: VSSVPTKLEVVAATPTSLLISWDAPAVTVDLYVITYGETGGNSPVQEFTVPGSKSTATISGLSPGVDYTITVYAGWGNWELGYSWSSPISINYRT
B3: SEQ ID NO 82 (designed binder)
chain: VSSVPTKLEVVAATPTSLLISWDAPAVTVDFYVITYGETGGNSPVQEFTVPGSKSTATISGLSPGVDYTITVYANWAYSYRYSPISINYRT
B4: SEQ ID NO 84 (designed binder)
chain: B3 chain with F31Y, V33L, N75W, W76D, A77P, S79W, Y80D, R81V, Y82M
B5: SEQ ID NO 83 (designed binder)
chain: B3 chain with D30F, F31Y, T49E, W76Y, A77P, R81M
B6: GG3 (designed binder)
chain: VSSVPTKLEVVAATPTSLLISWDAPAVTVVHYVITYGETGGNSPVQEFTVPGSKSTATISGLSPGVDYTITVYALLSSSHWVYESPISINYRT
B7: ySMB-5 (designed binder)
chain: VSSVPTKLEVVAATPTSLLISWDAPANSVSYYRITYGETGGNSPVQEFTVPGSSSTATISGLSPGVDYTITVYAYEWYGWGWTYSPISINYRT
notes: variable loops only; library YSGW
B8: ySMB-2 (designed binder)
chain: VSSVPTKLEVVAATPTSLLISWDASSSSVSYYRITYGETGGNSPVQEFTVPGSSSTATISGLSPGVDYTITVYAYWTYEWGYMYDSPISINYRT
B9: ySMB-7 (designed binder)
chain: B8 chain with W76Q, T77E, Y78W, E79S, W80Y, Y82W, M83S, Y84S, D85E
notes: as for B7
B10: ySMB-6 (designed binder)
chain: B8 chain with G52S, S53Y, T77E, Y78F, W80Y, M83W, Y84S, D85Y
notes: as for B7
B11: ySMB-4 (designed binder)
chain: VSSVPTKLEVVAATPTSLLISWDAPWAYSQSVAYYRITYGETGGNSPVQEFTVPGSSSTATISGLSPGVDYTITVYAYYGTPWGEGWYSWSPISINYRT
notes: as for B7
B12: ySMB-8 (designed binder)
chain: VSSVPTKLEVVAATPTSLLISWDAYVGYGSSVAYYRITYGETGGNSPVQEFTVPGSSSTATISGLSPGVDYTITVYAYYYEGDDLYSSMSPISINYRT
notes: as for B7
B13: SEQ ID NO 23 (designed binder)
chain: VSSVPTKLEVVAATPTSLLISWDAPAVTVDFYVITYGETGSFSPPQEFTVPGSKSTATISGLSPGVDYTITVYAMMWGWEYYDYNISPISINYRT
B14: SEQ ID NO 27 (designed binder)
chain: B13 chain
B15: SEQ ID NO 25 (designed binder)
chain: B13 chain
B16: SEQ ID NO 26 (designed binder)
chain: VSSVPTKLEVVAATPTSLLISWDAPAVTVDHYVITYGETGGVWYGYQEFTVPGSKSTATISGLSPGVDYTITVYAMTSYFQEYWSPISINYRT
B17: SEQ ID NO 24 (designed binder)
chain: VSSVPTKLEVVAATPTSLLISWDAPAVTVDLYIITYGETGSYHGWQTFTVPGSKSTATISGLSPGVDYTITVYADSSTWPYWYYSSPISINYRT
B18: ySMB-20 (designed binder)
chain: VSSVPTKLEVVAATPTSLLISWDAGYYMNYYMVDYYRITYGETGGNSPVQEFTVPGSSSTATISGLSPGVDYTITVYAYWYDEYGQYWWSESPISINYRT
notes: as for B7
B19: ySMB-17 (designed binder)
chain: VSSVPTKLEVVAATPTSLLISWDASSSSVSYYRITYGETGGNSPVQEFTVPGSSSTATISGLSPGVDYTITVYAYIQYYDLYYASPISINYRT
notes: as for B7
B20: ySMB-91 (designed binder)
chain: VSSVPTKLEVVAATPTSLLISWDASYSSSSVSYYRITYGETGGNSPVQEFTVPGSSSTATISGLSPGVDYTITVYAYYYSYYYYYSYSPISINYRT
notes: variable loops only; library YS
B21: ySMB-64 (designed binder)
chain: VSSVPTKLEVVAATPTSLLISWDASQFSGVSYYRITYGETGGNSPVQEFTVPGSYSTATISGLSPGVDYTITVYAYYHEHWGYYSYSPISINYRT
notes: as for B7
B22: ySMB-69 (designed binder)
chain: B8 chain with W76Y, T77S, Y78T, E79Y, G81Y, Y82D, M83W, Y84S, D85G
notes: as for B7
B23: ySMB-74 (designed binder)
chain: B8 chain with W76Y, T77Y, Y78F, E79Y, W80D, G81Y, Y82W, Y84A, D85Y
notes: as for B7
B24: ySMB-90 (designed binder)
chain: B8 chain with W76Y, T77Y, Y78S, E79Y, W80Y, G81Y, Y82S, M83Y, Y84S, D85Y
notes: as for B20
B25: ySMB-71 (designed binder)
chain: B8 chain with W76Y, T77V, Y78G, E79D, W80G, G81Y, M83W, Y84S, D85E
notes: as for B7
B26: ySMB-67 (designed binder)
chain: VSSVPTKLEVVAATPTSLLISWDAGSFGFHDPVYYYRITYGETGGNSPVQEFTVPGSSSTATISGLSPGVDYTITVYAYYQYMDYYYSYSPISINYRT
notes: as for B7
B27: Clone# 1 (ySUMO Monobodies) (designed binder)
chain: B8 chain with W76Y, T77S, E79Y, W80D, G81I, M83Y, Y84A, D85V, I88S
notes: recovered against ySUMO from the SUMO-targeted library
B28: Clone# 2 (ySUMO Monobodies) (designed binder)
chain: B8 chain with W76Y, T77S, Y78E, W80F, G81F, Y82D, M83Y, Y84A, D85V, I88S
notes: as for B27
B29: Clone# 3 (ySUMO Monobodies) (designed binder)
chain: VSSVPTKLEVVAATPTSLLISWDASSSSVSYYRITYGETGGNSPVQEFTVPGSSSTATISGLSPGVDYTITVFAYYSEEFFDYAYSPSSINYRT
notes: as for B27
B30: Clone# 5 (ySUMO Monobodies) (designed binder)
chain: B29 chain with F73Y, E78Y, E79Y, F80N, F81I, D82F, Y83F, Y85D
notes: as for B27
B31: Clone# 4 (ySUMO Monobodies) (designed binder)
chain: B29 chain with F73Y, E78D, E79D, F81L, Y83F, Y85F
notes: as for B27
B32: ySMB-ST1 (designed binder)
chain: B29 chain with F73Y, E78Y, E79Y, F80D, F81I, D82Y, Y85V
B33: ySMB-ST3 (designed binder)
chain: B29 chain
B34: ySMB-ST4 (designed binder)
chain: B29 chain with F73Y, E78D, E79D, F81L, Y83F, Y85F
B35: ySMB-ST2 (designed binder)
chain: B29 chain with F73Y, Y85V
B36: ySMB-ST5 (designed binder)
chain: B29 chain with F73Y, E78Y, E79Y, F80N, F81I, D82F, Y83F, Y85D

biological target: T1, human Abl SH2 domain; test: phage display selection hit, BL2 library

Question: Does B1 bind?
Answer: Result: binds

Question: Does B2 bind?
Answer: Result: binds

Question: Does B3 bind?
Answer: Result: binds

Question: Does B4 bind?
Answer: Result: binds

Question: Does B5 bind?
Answer: Result: binds

Question: Does B6 bind?
Answer: Result: binds

biological target: T2, yeast small ubiquitin-like modifier protein (yeast, UniProt Q12306 3-98 = SUMO); test: SPR
T2 construct: GST fusion in most phage ELISAs, His-tagged or tag-cleaved elsewhere; also called ySUMO; yeast SUMO
T2 sequence (Q12306 3-98 limits assumed): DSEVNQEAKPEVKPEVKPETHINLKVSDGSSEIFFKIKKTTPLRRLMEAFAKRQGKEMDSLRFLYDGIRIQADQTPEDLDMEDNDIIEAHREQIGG
Method: (§1) Cradle molecules purified as described above were immobilized via His-tag to an NTA surface using a Biacore™ 2000 instrument so that the theoretical maximum response (Rₘₐₓ) from target binding was 100-200 RU. Target protein at varying concentrations was then flowed over the surface at a flow rate of 30 μL/min and the binding signal recorded. Fitting of kinetic traces was carried out using the BIAevaluation software. For equilibrium experiments, the equilibrium binding response was recorded for multiple target concentrations and fit to a simple 1:1 saturation binding curve.

Question: How did the Kd turn out when B7 was run?
Answer: The Kd was 0.1 µM.

Question: For B8, which Kd is on record?
Answer: The Kd was 0.045 µM.

Question: Which Kd does the source give for B9 here?
Answer: The Kd was 0.8 µM.

Question: How did the Kd turn out when B10 was run?
Answer: Its Kd is 0.166 µM.

Question: How did the Kd turn out when B11 was run?
Answer: Its Kd is 0.21 µM.

Question: Which Kd does the source give for B12 here?
Answer: Its Kd is 0.35 µM.

biological target: human ubiquitin (human, UniProt P0CG48 1-76); test: phage display selection hit, BL1 library

Question: Does B13 bind?
Answer: Result: binds

Question: Does B14 bind?
Answer: Result: binds

Question: Does B15 bind?
Answer: Result: binds

Question: Does B16 bind?
Answer: Result: binds

Question: Does B17 bind?
Answer: Result: binds

biological target: T2, yeast small ubiquitin-like modifier …; test: SPR; column 'Estimated Kd (nM)'
How it was run: (§2)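 Purified His-tagged molecules were captured on an NTA surface of a Biacore 2000 to reach a theoretical maximum target response of 100-200 RU, and target at varying concentrations was flowed at 30 μL/min. Estimated Kd values come from surface plasmon resonance binding signals, analysed either by kinetic fitting in BIAevaluation software or by fitting equilibrium responses to a saturation binding curve with 1:1 binding.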

Question: Which Kd does the source give for B7 here?
Answer: The Kd was 0.1 µM.

Question: With B18 as the binder, how does the Kd read?
Answer: Its Kd is 0.066 µM.

Question: Which Kd does the source give for B8 here?
Answer: Its Kd is 0.045 µM.

Question: For B9, which Kd is on record?
Answer: Its Kd is 0.8 µM.

Question: For B10, which Kd is on record?
Answer: Its Kd is 0.166 µM.

Question: For B11, which Kd is on record?
Answer: The Kd was 0.21 µM.

Question: How did the Kd turn out when B19 was run?
Answer: Its Kd is 0.04 µM.

Question: B12 was tested. Which Kd did it give?
Answer: The Kd was 0.35 µM.

biological target: T2, yeast small ubiquitin-like modifier …; test: SPR, fit of the traces to a 1:1 binding model [panel D]
Method: as §1

Question: What does the source list for B8?
Answer: koff: 0.04 s⁻¹; kon: 970000 M⁻¹ s⁻¹

biological target: T2, yeast small ubiquitin-like modifier …; test: SPR; column 'Estimated Kd (nM)' [Continued]
How it was run: as §2

Question: With B20 as the binder, how does the Kd read?
Answer: Its Kd is 1 µM.

Question: Which Kd does the source give for B21 here?
Answer: Its Kd is 0.28 µM.

Question: With B22 as the binder, how does the Kd read?
Answer: The Kd was 0.138 µM.

Question: How did the Kd turn out when B23 was run?
Answer: Its Kd is 0.544 µM.

Question: Which Kd does the source give for B24 here?
Answer: Its Kd is 0.32 µM.

Question: B25 was tested. Which Kd did it give?
Answer: Its Kd is 0.23 µM.

Question: How did the Kd turn out when B26 was run?
Answer: The Kd was 1 µM.

biological target: T2, yeast small ubiquitin-like modifier …; test: SPR (monobody on the chip via His-tag, target flowed); estimated Kd
Method: as §1

Question: Which Kd does the source give for B27 here?
Answer: The Kd was 0.039 µM.

Question: With B28 as the binder, how does the Kd read?
Answer: Its Kd is 0.194 µM.

Question: B29 was tested. Which Kd did it give?
Answer: The Kd was 0.435 µM.

Question: For B30, which Kd is on record?
Answer: Its Kd is 0.112 µM.

Question: How did the Kd turn out when B31 was run?
Answer: Its Kd is 3.3 µM.

biological target: T2, yeast small ubiquitin-like modifier …; test: SPR (Biacore 2000), monobody immobilised via His-tag on NTA surface, ySUMO flowed over it
Method: as §1

Question: B32 was tested. Which Kd did it give?
Answer: Its Kd is 0.039 µM.

Question: Which Kd does the source give for B33 here?
Answer: The Kd was 0.435 µM.

Question: Which Kd does the source give for B34 here?
Answer: The Kd was 3.3 µM.

Question: Which Kd does the source give for B35 here?
Answer: Its Kd is 0.194 µM.

Question: For B36, which Kd is on record?
Answer: Its Kd is 0.112 µM.
